Data from article PMC7402622 (Science (New York, N.y.), 2020).

Key:
[1] = target: T1, stabilized SARS-CoV-2 S ectodomain trimer (SARS-CoV-2, Wuhan-Hu-1 (GenBank …, UniProt P0DTC2, stabilised)); assay: SPR
[2] = target: T1, stabilized SARS-CoV-2 S ectodomain …; assay: cryo-EM structure

| Binder | binding result [1] | binding result [2] |
| --- | --- | --- |
| H014 humanized monoclonal antibody (IgG) (antibody, V domains shown) VH: EVQLVQSGAEVKKPGATVKISCKVSGYSFSNYYIHWVKQAPGKSLEWIGYIDPFNGGTSDNLKFKGAATLTADTSTDTAYMELSSLRSEDTAVYYCARSEYDPYYVMDYWGQGTTVTVSS VL: IVLTQSPFQSVSPKEKVTITCRASQSISSNLHWYQQKPDQSPKLLIKYASQSISGIPSRFSGSGSGTDFTLTINSLEAEDFGIYFCQQTNFWPYIFGQGTKLEIL | binds | – |
| H014 Fab fragment (Fab, V domains shown) VH: EVQLVQSGAEVKKPGATVKISCKVSGYSFSNYYIHWVKQAPGKSLEWIGYIDPFNGGTSDNLKFKGAATLTADTSTDTAYMELSSLRSEDTAVYYCARSEYDPYYVMDYWGQGTTVTVSS VL: IVLTQSPFQSVSPKEKVTITCRASQSISSNLHWYQQKPDQSPKLLIKYASQSISGIPSRFSGSGSGTDFTLTINSLEAEDFGIYFCQQTNFWPYIFGQGTKLEIL | – | binds |
